In US20230203097A1 one finds Kd and fold binding affinity against MQP-37 data, which are given here for two molecules.

Where no end group is shown, it is not given here.

Experiment [1] addresses recombinant MAVS protein. Kind of experiment: fluorescence-labeled peptide titrated on plate-coated recombinant MAVS (250 ng per well), fluorescence read-out.
The target of experiment [2] is recombinant MAVS protein. Kind of experiment: fluorescence-labeled peptide titrated on plate-coated recombinant MAVS; ratio of the Kd of MQP-37 to that of MQP-37A6.
recombinant MAVS protein, sequence (Q7Z434 2-540): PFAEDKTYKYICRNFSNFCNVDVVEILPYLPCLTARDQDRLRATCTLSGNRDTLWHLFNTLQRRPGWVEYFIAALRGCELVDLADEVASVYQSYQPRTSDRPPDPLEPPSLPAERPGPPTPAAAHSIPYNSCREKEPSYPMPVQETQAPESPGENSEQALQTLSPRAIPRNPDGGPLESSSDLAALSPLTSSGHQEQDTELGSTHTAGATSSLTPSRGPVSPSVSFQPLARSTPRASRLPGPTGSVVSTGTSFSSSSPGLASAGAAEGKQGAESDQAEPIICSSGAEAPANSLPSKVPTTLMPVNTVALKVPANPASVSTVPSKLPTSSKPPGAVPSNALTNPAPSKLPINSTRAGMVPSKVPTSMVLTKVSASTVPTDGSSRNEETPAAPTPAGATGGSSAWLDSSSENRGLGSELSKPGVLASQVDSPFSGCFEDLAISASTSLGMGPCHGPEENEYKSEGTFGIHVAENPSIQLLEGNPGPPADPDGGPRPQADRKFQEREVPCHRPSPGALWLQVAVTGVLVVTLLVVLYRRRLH

As usually defined, the Kd is the concentration at which binding is half-saturated. In the case of SLVLAAARW (also: fluorescence-labeled, label and position not given here) [fluorescence-labeled novel alanine-substituted peptide MQP-37A6], the Kd with recombinant MAVS protein [1] was found to be 0.75 mM. The fold binding affinity against MQP-37 with recombinant MAVS protein [2] was 20 times. Consider SLVLADARW (also: fluorescence-labeled, label and position not given here) [fluorescence-labeled peptide MQP-37], for which the Kd with recombinant MAVS protein [1] amounted to 16 mM.
